The record followed here is PMC9482650, “Quantitative fragmentomics allow affinity mapping of interactomes” (Nature Communications, 2022).

Targets include PARD3_3, Q8TEW0; LNX1_2, Q8TBB1; SCRIB_2, Q14160; LIMK2, P53671; IL16_1, Q14005; TJP1_2, Q07157; GIPC2, Q8TF65; PDZRN4_1, Q6ZMN7; MAST1, Q9Y2H9; DLG4_1, P78352; HTRA2, O43464.
Common to all, as to assay: holdup assay
What all share (set-up): key: below the threshold = too weak to quantify, mostly under pKd 3.1 to 4

Another test concerns the target T1, SNTB1, Q13884.
T1 sequence (Q13884 107-205, limits assumed, looked up): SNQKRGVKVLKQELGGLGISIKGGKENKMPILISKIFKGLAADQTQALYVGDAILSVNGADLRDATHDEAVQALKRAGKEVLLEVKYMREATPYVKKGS

The target of another test is T2, DLG3_1, Q92796.
T2 sequence (Q92796 125-227, limits assumed, looked up): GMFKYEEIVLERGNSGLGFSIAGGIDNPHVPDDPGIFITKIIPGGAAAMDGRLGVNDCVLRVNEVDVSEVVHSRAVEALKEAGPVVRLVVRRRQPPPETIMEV

For another test, the target named is T3, TIAM2, Q8IVF5.
T3 sequence (Q8IVF5 885-986, limits assumed, looked up): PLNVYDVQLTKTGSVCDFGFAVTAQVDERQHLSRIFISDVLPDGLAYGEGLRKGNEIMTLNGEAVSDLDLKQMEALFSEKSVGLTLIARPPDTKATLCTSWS

For the next test, the target named is T4, SIPA1L2, Q9P2F8.
T4 sequence (Q9P2F8 945-1036, limits assumed, looked up): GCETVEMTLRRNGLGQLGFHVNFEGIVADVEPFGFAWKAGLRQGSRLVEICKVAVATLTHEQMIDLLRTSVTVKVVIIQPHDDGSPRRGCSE

Another test addresses T5, NHERF3_3, Q5T2W1.
T5 sequence (Q5T2W1 238-333, limits assumed, looked up): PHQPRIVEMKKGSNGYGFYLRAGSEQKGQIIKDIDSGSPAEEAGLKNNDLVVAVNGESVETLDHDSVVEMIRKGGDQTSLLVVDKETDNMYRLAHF

The next test addresses T6, SNTA1, Q13424.
T6 sequence (Q13424 82-180, limits assumed, looked up): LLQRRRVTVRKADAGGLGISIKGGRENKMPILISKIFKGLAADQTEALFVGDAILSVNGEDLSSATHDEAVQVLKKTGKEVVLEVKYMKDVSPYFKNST

The next test addresses T7, NHERF3_1, Q5T2W1.
T7 sequence (Q5T2W1 4-100, limits assumed, looked up): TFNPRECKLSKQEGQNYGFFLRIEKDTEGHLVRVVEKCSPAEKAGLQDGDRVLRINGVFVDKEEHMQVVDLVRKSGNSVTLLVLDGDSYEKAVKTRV

Another test addresses T8, RAPGEF6, Q8TEU7.
T8 sequence (Q8TEU7 525-625, limits assumed, looked up): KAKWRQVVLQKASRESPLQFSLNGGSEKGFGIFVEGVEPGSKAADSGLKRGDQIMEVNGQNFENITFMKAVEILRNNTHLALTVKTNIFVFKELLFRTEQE

Another test deals with T9, DFNB31_2, Q9P202.
T9 sequence (Q9P202 274-371, limits assumed, looked up): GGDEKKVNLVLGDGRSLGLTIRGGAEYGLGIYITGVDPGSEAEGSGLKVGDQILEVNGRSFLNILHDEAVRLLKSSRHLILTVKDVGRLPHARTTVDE

In a further test the target is T10, CARD11, Q9BXL7.
T10 sequence (Q9BXL7 662-765, limits assumed, looked up): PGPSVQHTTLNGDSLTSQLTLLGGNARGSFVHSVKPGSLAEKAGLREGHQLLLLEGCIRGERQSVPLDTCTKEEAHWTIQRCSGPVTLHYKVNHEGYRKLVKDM

The target of the next test is T11, DLG3_3, Q92796.
T11 sequence (Q92796 374-475, limits assumed, looked up): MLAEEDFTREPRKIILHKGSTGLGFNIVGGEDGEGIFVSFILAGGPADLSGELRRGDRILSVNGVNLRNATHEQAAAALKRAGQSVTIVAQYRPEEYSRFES

For another test, the target named is T12, SHANK1, Q9Y566.
T12 sequence (Q9Y566 658-767, limits assumed, looked up): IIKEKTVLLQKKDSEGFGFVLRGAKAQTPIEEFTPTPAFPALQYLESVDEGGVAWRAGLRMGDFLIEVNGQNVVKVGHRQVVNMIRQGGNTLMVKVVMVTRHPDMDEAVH

In another test the target is T13, DLG3_2, Q92796.
T13 sequence (Q92796 221-321, limits assumed, looked up): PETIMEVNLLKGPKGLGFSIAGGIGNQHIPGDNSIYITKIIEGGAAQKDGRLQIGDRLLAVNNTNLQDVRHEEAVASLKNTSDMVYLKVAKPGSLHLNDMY

Where [1] appears, read: plain residues with an end cap or a label only (N-terminal biotin on a linker: ado-ado, ttds).
Where [2] appears, read: plain residues with an end cap or a label only (N-terminal biotin on a linker: ahx).
The mark [3] stands for this setting: plain residues with an end cap or a label only (N-terminal biotin on a linker: ttds).

Chain of MAST1, Q9Y2H9 (Q9Y2H9 962-1065): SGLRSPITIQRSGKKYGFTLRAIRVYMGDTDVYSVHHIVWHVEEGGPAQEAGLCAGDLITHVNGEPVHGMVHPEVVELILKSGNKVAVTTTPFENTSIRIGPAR
Chain of TJP1_2, Q07157 (Q07157 181-274): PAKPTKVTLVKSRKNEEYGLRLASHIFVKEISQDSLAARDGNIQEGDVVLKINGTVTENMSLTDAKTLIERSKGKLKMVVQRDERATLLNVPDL
Chain of GIPC2, Q8TF65 (Q8TF65 112-203): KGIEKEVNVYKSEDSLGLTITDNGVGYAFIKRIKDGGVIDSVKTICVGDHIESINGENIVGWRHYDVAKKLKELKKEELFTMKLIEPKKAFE
Chain of LIMK2, P53671 (P53671 143-248): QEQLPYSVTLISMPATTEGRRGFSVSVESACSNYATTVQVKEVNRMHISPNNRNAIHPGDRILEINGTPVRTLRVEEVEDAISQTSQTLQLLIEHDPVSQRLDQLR
Chain of DLG4_1, P78352 (P78352 62-152): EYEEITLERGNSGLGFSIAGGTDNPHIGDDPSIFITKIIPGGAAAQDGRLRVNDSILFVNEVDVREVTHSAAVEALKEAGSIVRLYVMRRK
Chain of SCRIB_2, Q14160 (Q14160 857-960): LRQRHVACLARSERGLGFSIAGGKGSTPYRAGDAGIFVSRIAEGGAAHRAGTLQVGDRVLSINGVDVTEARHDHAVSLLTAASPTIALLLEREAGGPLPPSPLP
Chain of LNX1_2, Q8TBB1 (Q8TBB1 371-470): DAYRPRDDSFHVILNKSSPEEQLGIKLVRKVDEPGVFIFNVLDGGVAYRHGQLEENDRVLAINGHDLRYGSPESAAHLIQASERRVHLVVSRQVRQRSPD
Chain of IL16_1, Q14005 (Q14005 210-306): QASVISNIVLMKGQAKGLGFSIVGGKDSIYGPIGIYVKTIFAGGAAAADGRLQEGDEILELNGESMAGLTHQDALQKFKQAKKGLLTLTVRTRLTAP
Chain of PDZRN4_1, Q6ZMN7 (Q6ZMN7 213-318): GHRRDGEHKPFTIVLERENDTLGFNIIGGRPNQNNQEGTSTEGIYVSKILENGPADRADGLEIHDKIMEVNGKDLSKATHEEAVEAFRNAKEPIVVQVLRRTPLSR
Chain of HTRA2, O43464 (O43464 355-458): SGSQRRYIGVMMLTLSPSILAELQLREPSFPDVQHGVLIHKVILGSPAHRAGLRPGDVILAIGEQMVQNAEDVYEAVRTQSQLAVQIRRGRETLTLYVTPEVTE
Chain of PARD3_3, Q8TEW0 (Q8TEW0 582-685): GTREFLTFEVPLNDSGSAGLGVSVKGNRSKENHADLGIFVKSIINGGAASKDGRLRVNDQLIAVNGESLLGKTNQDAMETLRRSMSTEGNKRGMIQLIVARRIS

B1: KCNA4, P22459 (peptide)
chain: SNAKAVETDV
Turning to B1, the pKd entry with PARD3_3, Q8TEW0 (setting [1]) was “below the threshold”; in the test with SNTB1, Q13884 (setting [1]), 4.71; in the test with LNX1_2, Q8TBB1 (setting [1]), “below the threshold”; in the test with SCRIB_2, Q14160 (setting [1]), 4.67; in the test with LIMK2, P53671 (setting [1]) it was “below the threshold”; with IL16_1, Q14005 (setting [1]), “below the threshold”. In addition, the pKd entry was “below the threshold” with TJP1_2, Q07157 (setting [1]); 4.25 with DLG3_1, Q92796 (setting [1]); “below the threshold” with TIAM2, Q8IVF5 (setting [1]); “below the threshold” in the test with SIPA1L2, Q9P2F8 (setting [1]); “below the threshold” with NHERF3_3, Q5T2W1 (setting [1]); “below the threshold” with GIPC2, Q8TF65 (setting [1]). Also, the pKd with SNTA1, Q13424 (setting [1]) was 4.7; with NHERF3_1, Q5T2W1 (setting [1]), “below the threshold”; with RAPGEF6, Q8TEU7 (setting [1]), “below the threshold”; with PDZRN4_1, Q6ZMN7 (setting [1]) it was “below the threshold”; with DFNB31_2, Q9P202 (setting [1]) it was “below the threshold”; with CARD11, Q9BXL7 (setting [1]), 3.55. The pKd with MAST1, Q9Y2H9 (setting [1]) was 4.32; with DLG4_1, P78352 (setting [1]) it was 4.67; with DLG3_3, Q92796 (setting [1]), “below the threshold”; with HTRA2, O43464 (setting [1]), “below the threshold”; in the test with SHANK1, Q9Y566 (setting [1]), “below the threshold”; in the test with DLG3_2, Q92796 (setting [1]), 5.23.

B2: NHERF1, O14745 (peptide)
chain: SKKNELFSNL
On to B2, for which the pKd result with PARD3_3, Q8TEW0 (setting [2]) was “below the threshold”; with SNTB1, Q13884 (setting [2]), “below the threshold”; with LNX1_2, Q8TBB1 (setting [2]), “below the threshold”; with SCRIB_2, Q14160 (setting [2]), “below the threshold”; in the test with LIMK2, P53671 (setting [2]), “below the threshold”; with IL16_1, Q14005 (setting [2]), “below the threshold”. In addition, the pKd result in the test with TJP1_2, Q07157 (setting [2]) was “below the threshold”; with DLG3_1, Q92796 (setting [2]), “below the threshold”; with TIAM2, Q8IVF5 (setting [2]), “below the threshold”; with SIPA1L2, Q9P2F8 (setting [2]), “below the threshold”; with NHERF3_3, Q5T2W1 (setting [2]) it was “below the threshold”; with GIPC2, Q8TF65 (setting [2]), “below the threshold”. In addition, the pKd entry with SNTA1, Q13424 (setting [2]) is reported as “below the threshold”; with NHERF3_1, Q5T2W1 (setting [2]) it was “below the threshold”; with RAPGEF6, Q8TEU7 (setting [2]), “below the threshold”; with PDZRN4_1, Q6ZMN7 (setting [2]), “below the threshold”; with DFNB31_2, Q9P202 (setting [2]), “below the threshold”; with CARD11, Q9BXL7 (setting [2]) it was “below the threshold”. For the same molecule, the pKd with MAST1, Q9Y2H9 (setting [2]) was 3.6; in the test with DLG4_1, P78352 (setting [2]) it was “below the threshold”; in the test with DLG3_3, Q92796 (setting [2]) it was “below the threshold”; in the test with HTRA2, O43464 (setting [2]), “below the threshold”; in the test with SHANK1, Q9Y566 (setting [2]) it was “below the threshold”; with DLG3_2, Q92796 (setting [2]), “below the threshold”.

B3: SLC15A5, A6NIM6 (peptide)
chain: SSIDLWETAL
For B3, the pKd in the test with PARD3_3, Q8TEW0 (setting [3]) is 4.44; with SNTB1, Q13884 (setting [3]), 5.41; in the test with LNX1_2, Q8TBB1 (setting [3]) it was “below the threshold”; with SCRIB_2, Q14160 (setting [3]), 5.14; with LIMK2, P53671 (setting [3]), “below the threshold”; with IL16_1, Q14005 (setting [3]), 4.29. Further, the pKd result with TJP1_2, Q07157 (setting [3]) was “below the threshold”; with DLG3_1, Q92796 (setting [3]), 3.87; with TIAM2, Q8IVF5 (setting [3]), “below the threshold”; with SIPA1L2, Q9P2F8 (setting [3]) it was “below the threshold”; with NHERF3_3, Q5T2W1 (setting [3]), “below the threshold”; with GIPC2, Q8TF65 (setting [3]), 4.04. For the same molecule, the pKd in the test with SNTA1, Q13424 (setting [3]) was 5.19; with NHERF3_1, Q5T2W1 (setting [3]), 6.25; with RAPGEF6, Q8TEU7 (setting [3]), “below the threshold”; with PDZRN4_1, Q6ZMN7 (setting [3]) it was 5.58; in the test with DFNB31_2, Q9P202 (setting [3]) it was “below the threshold”; in the test with CARD11, Q9BXL7 (setting [3]), “below the threshold”. The pKd in the test with MAST1, Q9Y2H9 (setting [3]) is 5.45; with DLG4_1, P78352 (setting [3]), 4.29; in the test with DLG3_3, Q92796 (setting [3]) it was 3.8; in the test with HTRA2, O43464 (setting [3]), “below the threshold”; with SHANK1, Q9Y566 (setting [3]) it was 5.38; with DLG3_2, Q92796 (setting [3]), 4.28.

B4: HPV82-E6, Q9IR59 (peptide)
chain: PPRQRSETQV
Turning to B4, the pKd entry with PARD3_3, Q8TEW0 (setting [3]) was “below the threshold”; with SNTB1, Q13884 (setting [3]), 4.05; in the test with LNX1_2, Q8TBB1 (setting [3]), “below the threshold”; with SCRIB_2, Q14160 (setting [3]), 4.26; in the test with LIMK2, P53671 (setting [3]), “below the threshold”; with IL16_1, Q14005 (setting [3]), “below the threshold”. Also, the negative logarithm of the Kd (pKd) result with TJP1_2, Q07157 (setting [3]) is “below the threshold”; with DLG3_1, Q92796 (setting [3]), 4.12; with TIAM2, Q8IVF5 (setting [3]), “below the threshold”; with SIPA1L2, Q9P2F8 (setting [3]) it was “below the threshold”; with NHERF3_3, Q5T2W1 (setting [3]), “below the threshold”; in the test with GIPC2, Q8TF65 (setting [3]), “below the threshold”. The pKd was 4.15 in the test with SNTA1, Q13424 (setting [3]); 4.03 in the test with NHERF3_1, Q5T2W1 (setting [3]); “below the threshold” with RAPGEF6, Q8TEU7 (setting [3]); 3.83 in the test with PDZRN4_1, Q6ZMN7 (setting [3]); “below the threshold” with DFNB31_2, Q9P202 (setting [3]); “below the threshold” with CARD11, Q9BXL7 (setting [3]). For the same molecule, the pKd with MAST1, Q9Y2H9 (setting [3]) was 4.41; with DLG4_1, P78352 (setting [3]), 4.65; in the test with DLG3_3, Q92796 (setting [3]), 4.63; with HTRA2, O43464 (setting [3]), “below the threshold”; with SHANK1, Q9Y566 (setting [3]), “below the threshold”; in the test with DLG3_2, Q92796 (setting [3]) it was 4.98.

As usually defined, the pKd is −log10 of the Kd, conventionally taken in molar units.
